The target of this assay is T1, human PD-L1 expressed on the cell surface (human, UniProt Q9NZQ7 19-290).
T1 construct: whole, on cells; also called CHO-PD-L1
Kind of assay: flow cytometry on anti-CD3 activated human lymphocytes (CD19 negative gate), PE anti-human Ig detection. How it is done:
This example provides a characterization of the disclosed anti-PD-L1 antibodies binding to human PD-L1 expressed on human lymphocytes. Human peripheral blood mononuclear cells were activated by culture with anti-CD3 for three days to promote expression of PD-L1. Binding was assessed by adding serial dilutions of the antibody to the activated lymphocytes. After washing, binding was detected by staining with a phycoerythrin labeled anti-human Ig reagent followed by analysis using a FACS Aria (Becton Dickinson, San Jose, Calif.). Since the anti-human Ig reagent reacts with immunoglobulin on B lymphocytes the cells were co-staining with an anti-human CD19 APC-Cy5 reagent.

Broadly, the EC50 is the concentration giving half of the maximal effect. Low readings indicate a more potent agent, high ones a less potent agent.

T1 sequence (Q9NZQ7 19-290): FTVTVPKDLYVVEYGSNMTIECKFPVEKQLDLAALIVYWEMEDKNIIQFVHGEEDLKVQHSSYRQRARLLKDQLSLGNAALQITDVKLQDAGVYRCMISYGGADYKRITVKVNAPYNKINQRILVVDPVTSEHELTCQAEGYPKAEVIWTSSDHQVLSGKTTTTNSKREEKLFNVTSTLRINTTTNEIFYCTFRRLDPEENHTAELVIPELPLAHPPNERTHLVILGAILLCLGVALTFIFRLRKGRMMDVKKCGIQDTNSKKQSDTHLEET

B1: anti-PD-L1 antibody H10 (antibody, V domains shown)
VH: EVQLVQSGGGLVQPGGSLRLSCAASGFTFSSYSMNWVRQAPGKGLEWVSYISSSSSTIYYADSVKGRFTISRDNAKNSLYLQMNSLRDEDTAVYYCARGDYYYGMDVWGQGTTVTVSS
VL: EIVLTQSPSSLSASIGDRVTLTCRASQSIRRFLNWYQQKPGKAPELLIYTASSLQSGVPSRFSGSGSGTDFTLTINSLQPEDFATYYCQQSYAVSPYTFGQGTKVEIR
notes: Fully human antibody of an IgG class
Consider B1, for which the EC50 was ~0.1 nM.

B2: anti-PD-L1 antibody H6 (antibody, V domains shown)
VH: QMQLVQSGAEVKKPGSSVKVSCKASGGTFSSYAISWVRQAPGQGLEWMGGIIPIFGTANYAQKFQGRVTITADESTSTAYMELSSLRSEDTAVYYCARGNIVATITPLDYWGQGTLVTVSS
VL: SYELMQPPSVSVAPGKTATIACGGENIGRKTVHWYQQKPGQAPVLVIYYDSDRPSGIPERFSGSNSGNTATLTISRVEAGDEADYYCQVWDSSSDHRIFGGGTKLTVL
notes: as for B1
In the case of B2, the EC50 was ~0.1 nM.
